Assay: yeast display, Sf9 membrane polyspecificity reagent, FACS + sequencing; frameworks hold sequencing errors
How it was run: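 Polyreactivity labels are assigned by the sorting gate from which each nanobody was recovered. The gates were low and high (top ~1%), set on anti-HA fluorescence for expression and streptavidin fluorescence for reagent binding. Before sorting, galactose-induced (36–48 hours) yeast display cells were stained for 1 hour at 4 °C with 10% biotinylated, detergent-solubilized Sf9 membrane reagent.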

Row | Sequence | polyreactivity (PSR sort gate)
1 | QVQLVESGGGLVQAGGSLRLSCAASGRTSRDYAMGWYRQAPGKERELVAAIRWRGVSTYYADSVKGRFTISRDNAKNTVYLQMNSLKPEDTAVYYCAKRESVSTSAGKGAMDSWGQGTQVTVSS | high polyreactivity
2 | QVQLVESGGGLVQAGGSLRLSCAASGSTFDYNAMGWYRQAPGKEMELVAAISRGGNTDYADSVKGRFTISRDNAKNTVYLQMNSLKPEDSAVYYCDADALLEWFDVAYFAYEYWGQGTQVTVSS | low polyreactivity
3 | QVQLVESGGGLVQAGGSLRLSCAASGRIFIVNTMGWYRQAPGKERELVATIDSDGDTNYADSVKGRFTISRDNAKNTVYLQMNSLKPEDTAVYYCAASYTHTLAALKGGRMDYWGQGTQVTVSS | low polyreactivity
4 | QDQLEESGGGLVQEGGSLRLSCAASGFTFRGYAMGWYRQAPGKERELVAAISYSGGSTYYADSVKGRFTISRDNAMNSVYLQMNSLKPEDTAVYFCAARGGGKVRHRGTYDYWGQGTQVTVSS | high polyreactivity
5 | QVQLVESGGGLVQAGGSLRLSCAASGSTFPEYAMGWYRKAPGKERELVAAISKSGGRTYYADSVKGRFTISRDNAKNTVYLQMNSLNPEDTAVYYCARDSYPHGRARFDYWGQGTQVTVSS | high polyreactivity
6 | QGQLVESGGGLVQAGGSLRLSCAPSGSTVWVNVMGCYSPARGKERELVAAIDSGGSTYYADSVKGRFTISRDKAKNTVYLQMISLKPEDTAVYYCNARVDTPSPYDYWGQGTQVTVSS | low polyreactivity
7 | QVQLVESGGGLVQAGGSLRLSCAASGSTFYSYAMGWYRQAPGKERELVAAISWDGGRTYYADSVKGRFTISRDNAKNTVYLQMNSLKPEDTAVYYCSADYPTYRHYYWGQGTQVTVSS | low polyreactivity
8 | QVQLVESGGGLVQAGCSLRLTCAASGSIFRTNAMGWSRQAPGKERELVAAITGSGGSTYYADSVKGRFTISRDNAKNTVYLQMNSLKPEDTAVYYCAAEFGSFVSPYNYYFWGLGTQVTVSS | low polyreactivity
9 | QVQLVESGGGLVQAGGSLRLSCAASGSIFYVYAMGWYRQAPGNERELVADITTRDGDTYYADSVKGRFTISRDNAKNTVYFQMNSLKPEDTAVYYCAADLNAYPQRAYDYWGQGTQVTVSS | low polyreactivity
10 | QVQLVESGGGLVQAGGSLRLSCAASGSTFTIYDMGWSRQAPGKERELVASISQGAGSTYYADSVKGRFTISRDNAKNTVYLQMNSQKPEDTAVYYCAADWYQSYVFVYWEGEYWAQGTQVTVSS | high polyreactivity
11 | QVQLEESGGGLVQAGGSLRLSCAASVSNLYYYPMGWYRQATRKERELVASIRNGGSTYYADSVKGLFTISRDNAKNTVYLQMNSLKPEDTAVYYCNARVSRSFRARYNYWGQGSQVTVSS | high polyreactivity
12 | QVQLVESGGGLVQAGGSLRLSCAASGRIFAVYAMGWYRQAPGKERELVAAISWSGGRTNYADSVKGRFTISRDNAKKTVYLQMNSLKPEDTAVYYCNARQWRFGFVASGGKYNYWGQGTQVTVSA | high polyreactivity
13 | QVQLVESGGGLVQAGGSLRLSCAASGRTFLRYAMGWYRQAPGTERELVAAISWSGGRTYYADSVKGRFTISRDNAKNTVYLQMNSLKPEDTAVYYCNKVVLYGAHYYYWGQGTQVTVSS | high polyreactivity
14 | QVQLVESGGGLVQAGGSLRLSCAASGYISRYNTMGWYRHAPGKERELVAAITWSGGSTYADSVKGRFTISRDNAKNTVYLQMNSLKQEDTAVYYCAAGAYIWDNYSYRWYDYWGQGTQVTVSS | high polyreactivity
15 | QVQLVESGGGLVQAGGSLRLSCAASGSIIGTYAMGWYRQAPGKERELVAAISSSGGRTYYADSVKGRFTISRDNAKNTVYLQMNILKTEYTAVYYCNTRPGTVFRAGGDYWGQGTQVTVSS | high polyreactivity
16 | HFQLVESGGRLVQAGGSIRLSCAASGRIFRPNAMGWYRQAPRKERQLVAAISYSGATTYYADSVKGRFTISRDNEKNTVYLQMNSLKPEDTAVYYCAACGTSAKEFGYWGQGTQVTVSS | low polyreactivity
17 | QVQLVESGGGLVQAGGSLRLSCAASGRIFFKNAMGWYRQAPGKDRELVAAISWSGGRTYYADSVKGRFTISRDNAKNTVYLQMNSLKPEDSAVYYCATRYHVGKYLYGYWGQGTQVTVSS | high polyreactivity
18 | QVQLVESGGGLVQAGGSLRLSCAASGLISYHYAMGWYRQAPGKERELVASISYTGGSTFYADSVKGRFTISRDNAKNTVYFQMNSLKPEDTAVYYCAAYRIWRPSYYYWGQGTQVTVSS | high polyreactivity
19 | QAQSVESGGGLVQAGGSLRLICAASGITFGNYAMGWYRQAPGKERALVASISWNVGSTYYADSVKGRFTISRDNAKNTVYLQMNSLKPEDTSVYYCARGYDRPRVATFHRFDYWGQGTQVTVSS | low polyreactivity
20 | QVQLVESGGGLVQAGGSLRLSCAASGSTFTSNAMGWYRQAPGKERELVAAISSGGSTSYADSVKGRFSISRDNAKNTVYLQMNSLKPEDTAVYYCAVGVLYAGYFYRYRYYYWGQGTQVTVSS | high polyreactivity
21 | QVQLVESGGGLVQAGGSLRLSCAASGRIFWRYAMGWYRQAPGKERQLVAGITYSGGRTYYADSVKGRFTISRDNAKNTVYLQMNSLKPEDTAVYYCAARGYFDALFDYWGQGTQVTVSS | low polyreactivity
22 | QVQLVESGGGLVQAGGSLRLSCAASGRIFPPYAMGWYRQAPGKERELVAAISSSTTSTYYADSVKGRFTISRDNAKNTVYLQMNSLKPEDTGVYYCAAQPYRAAFPYSSRRHLQYEYWGQGTQVTVSS | low polyreactivity

Row | Sequence | polyreactivity (PSR sort gate)
23 | QVQLVESGGGLVQAGGSLRLSCAASGSTFTYNTMGWYRQAPGKERELVAAISSGGSTYYADSVKGRFTISRDNAKNTVYLQMNSLKPEDTAVYYCAATAQKDSRYGSRYYYWGQGTQVTVSS | high polyreactivity
24 | QVQLVESGGGLVQAGGSLRLSCAASGRTFYPYAMGWYRQAPGKERELVAAINWRDGSTYYADSVKGRFTISRDNAKNTVYLQMNSLKPEDTAVYYCAADYYWWQYDYWGQGTQVTVSS | high polyreactivity
25 | QVQLVESGGGLVQAGGSLRLTCAASGFIFRAYAKGWYRQEPGKERELVAAISRSVSRTYYADSVKGRFTISRDNAKNTVYLQMNSLKPEDTAVYYCAADGQLHMDYWGQGTQVTVSS | high polyreactivity
26 | QVQLVESGLGLVQAGVSLRLSCAATGLTFVYYAMGWYRPAHGKERELVAAIDWSGGTTYYADSVKGRFTISRDHAKNTVYLQMNSLKPEDTAVYYCAADVVEEDDLEFYYWGQGTQVTVSS | high polyreactivity
27 | QVQLVESGGGLVQAGGSLRLSCAASGITFTYYAMGWYRQAPGKERELVDAITDRGGRTYYSDSVKGRFTISRDNAKNTVYIQMNSLKPEDTAVYYCAAYVPQGYKLYYWGQGTQVTVSS | high polyreactivity
28 | QVQLVESGGGLVQAGGSLRLSCAASGRTFRWYAMGWYRQAPGKERELVAAITSDGRTYYADSVKGRFTISRDNAKNTVYLQMNSLNPEDTAVYYCNAACRYAFPFGYNYWGQGTQVTVSS | high polyreactivity
29 | QVQLVESGGGLVQAGGSLRLSCAASGRTFERNAMGWYRPAPGKERELVAAITWSGVSTYYADSVKGRFTISRDNAKNTVYLQMNSLKPEDTAVYYCAADWDWRFHRMNYWGQGTQVTVSS | low polyreactivity
30 | QVQLVESGGGLVQAGGSLRLSCAASGRIFVKYAMGWYRQAPGKERELVAGISRSVGSTYYADSVKGRFTISRDNAKNTVYLQMNSLKPEDTAVYYCATRQKRVGYYYWGQGTQVTVSS | high polyreactivity
31 | QVQLVESGGGLVQAGGSLRLSCAASGSTFSSNAMGWYRQAPGKERELVAAITTSGGSTYYADSVKGRFTISRDNAKNTVYLEMNSLKPEDTAVYYCAADLVHASQWSIFLYGYWGQGTQVTVSS | low polyreactivity
32 | QVQLVESGGGFVQAGGSLRLSCAASGSTFHDYVMGWYRQAPGKERELVATIRRGASTYYADSVKGRFTISRDNEKNTVYLQMNSLIPEDTAVYYCAVPATGGYFSSEYDYWGQGTQVTVSS | low polyreactivity
33 | QVQLVESGGGLVQAGGSLRLSCAASGFTFVGNAMGWYRQAPGKERELVATITSGGNTKYADSVKGRFTISRDNAKNTVYLQMNSLKPEDTAVYYCAAAKYNYRRFNSWGQGTQVTVSS | low polyreactivity
34 | QLQLVESGAGLVQAGGSLRLSCAASGRIFAYNTMGRYRQAHGKERELVAVITSGGSTNYADYVKGRFTISRDNAKNTVYLQMNSLKPEDTAVYYCAKRPYGGSGGYRYDYWGQGTQVTVSS | high polyreactivity
35 | QVQLVESGGGLVQAGGSLRLSCAACGFTFLRYVMGWYRQAPGKERELVAAISYSGGRTYYADSVKGRFTISRDNAKNTVYLQMNSLKPEDTAVYYCAAARPVGYPPVLKYAYWGQGTQVTVSS | high polyreactivity
36 | QVQLVESGGGLVQAGGSLRLSCAASGSIFYHYSMGWYRQAPGKERELVAAITRSGGSTYYADSVKGRFTISRDNAKNTVFLQMNSLNPEDTAVYYSAKDPDSYNFLTSNWYDYWGLGTQVTVSS | low polyreactivity
37 | QVQLVESGGGLVQAGGSLRLSCAASGRIFSRYAMGRYRQAPGKERELVAAITQSGTSTYYADSVKGRFTISRDNAKNTVYLQMNSLKPEDTAVYYCNAYRQYRYDYWGQGTQVTVSS | low polyreactivity
38 | QVQLEESGGGLVQAGGSLRLICAASGIIFYVNAMGWYRQAPGKERELVAAITFGGDSTYYADSVKGRFTISRDNAKNTVYLQMNSLKPEDTAVYYCATDGDPAYPEMEYWGQGTQVTVSS | low polyreactivity
39 | QVQLVESGGGLVQAGGSLRLSCAASGSTFDGYTMGWYRQAPGKERELVAAISWRGTSTYYADSVKGRFTISRDNAKNTVYLQMNSLKPEDTAVYYCGAENWKPRVYWIYSGHHGYWGQGTQVTVSS | low polyreactivity
40 | QFQLVESGGGLVQAGGSLRLSCAASGRTISHNVMGWYRQAPGKEWELVAAISRNGGRTYYADSVKGRFTISRDNAKNTVYLQLNSLKTEDTAVYYCAAEAYPEYYYWGLGTQVTVSS | high polyreactivity
41 | QVQLVESGRGLVQAGGSLRLSCAASGSTFGGYAMGWYRQAPGKERELVAAISGSGVRTYYADSVKGRFTISRDNAKNTVYLQMNSLKPEDTAVYYCAKRVRYPGDRYYYWGQGTQVTLSS | high polyreactivity
42 | QVQLVESGGGLVQAGGSLRLSCAASGRTFYSYAMGWYRQAPGKEWVLVAAISKRGTSTYYADSVKGRFTISRDNAKNTVYLQMNTLKPEDTAVYYCAAAYRGREVEYTSWGQGTQVTVSS | high polyreactivity
43 | QVQLVESGGGVVQAGGILRFSCAASGRTFAPDAMGWYRQAPGKERELDAAITNGGSTTYADSVKGRFTISRDNAKNTVYLHMNSLNPEDTAVYYCAADIVSSTDYPFDYWGQGTQVNVSS | low polyreactivity
